To fix the notation:
B1: Ia_S2_P5E.1_K5.1_C5.1_H5.1_[A4T]_A5.1_F5.1_T5.1 (ssRNA)
RNA: UUUGAUUAAUAUGAUAUCGUUCUUUCUUGUUUUAUUAUUCUUUCUCGAUAUCAUAUUAAUCUUU
B2: Ia_S2_P5E.1_K5.1_C5.1_H5.1_A5.1_[T5C]_F5.1_T5.1 (ssRNA)
RNA: B1 RNA with U31A, U32C
B3: Ia_S2_P5E.1_K5.1_C5.1_H5.1_A5.1_[T5G]_F5.1_T5.1 (ssRNA)
RNA: B1 RNA with U31A, U32G

Substitutions are numbered along the chain they refer to. Names and notes keep the numbering of the source.

The target of one series is T1, PUF4 RNA-binding domain (Pumilio homology domain) (Saccharomyces cerevisiae) (UniProt P25339).
T1 sequence: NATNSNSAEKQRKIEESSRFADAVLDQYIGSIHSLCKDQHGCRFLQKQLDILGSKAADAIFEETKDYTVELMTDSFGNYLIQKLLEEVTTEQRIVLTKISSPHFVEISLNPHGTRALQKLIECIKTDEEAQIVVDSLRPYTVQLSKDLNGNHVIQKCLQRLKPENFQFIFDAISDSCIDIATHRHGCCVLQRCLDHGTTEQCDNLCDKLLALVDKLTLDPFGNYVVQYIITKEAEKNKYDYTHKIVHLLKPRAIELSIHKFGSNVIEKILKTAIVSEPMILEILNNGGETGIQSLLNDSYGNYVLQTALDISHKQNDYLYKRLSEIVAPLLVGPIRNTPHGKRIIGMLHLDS
Description: RNA-MaP. Particulars: RNA-MaP: 20 mM Na-HEPES pH 7.4, 0.1% Tween-20, 5% glycerol, 0.1 mg/mL BSA, 2 mM DTT, low salt 0.75 mM MgCl2 + 30 mM KOAc (model data; high salt 2 mM MgCl2 + …).
Regarding UGUAUCGCAC in S1b scaffold, the Kd was more than 2400 nM.

Take UGUAUAUUAU in S1a scaffold: the Kd was determined as 0.88 nM.

The target in a further series is T2, PUF4 RNA-binding domain (Saccharomyces cerevisiae, UniProt P25339 537-888).
T2 sequence: T1 sequence
Description: Mg; RNA-MaP; 20 mM Na-HEPES pH 7.4, 30 mM KOAc, 0.75 mM MgCl2, 0.1% Tween-20, 5% glycerol, 0.1 mg/mL BSA, 2 mM DTT; 25 C; 0.0125-409.6 nM protein. The note with it: tags: N-His6-TEV cleaved; C-SNAP kept, Cy3B-labelled; label: tethered on chip by stalled RNA polymerase.
ACAAACAGUACAUAACAAAC (ssRNA) [Ib_S3_P3E.1_K3.1_C3.1_H3.1_[T1A]_A3.1_[T5C]_F3.1_T3.1] showed a Kd of more than 2300 nM. Still for that read-out and setting: with ACAAACUCUACAUAACAAAC (ssRNA) [Ib_S3_P3E.1_K3.1_C3.1_H3.1_[G2C]_A3.1_[T5C]_F3.1_T3.1] the figure was more than 2300 nM; with B1, 11.5 nM. B2: the Kd is 1.48 nM.

With B3, the Kd is 6.34 nM. Same read-out and setting: with ACAAACUGCGUAUAACAAAC (ssRNA) [Ib_S3_P3E.1_K3.1_C3.1_H3.1_[T3C]_[A4G]_A3.1_F3.1_T3.1] the figure was more than 2300 nM; with ACAAACUGAGUAUAACAAAC (ssRNA) [Ib_S3_P3E.1_K3.1_C3.1_H3.1_[T3A]_[A4G]_A3.1_F3.1_T3.1], more than 2300 nM. Take ACAAACCGUAAAUAACAAAC (ssRNA) [Ib_S3_P3E.1_K3.1_C3.1_H3.1_[T1C]_A3.1_[T5A]_F3.1_T3.1]: the Kd is more than 2300 nM. Still for that read-out and setting: with ACAAACUCUAGAUAACAAAC (ssRNA) [Ib_S3_P3E.1_K3.1_C3.1_H3.1_[G2C]_A3.1_[T5G]_F3.1_T3.1] the figure was more than 2300 nM; with ACAAACAGUAUAUCAACAAAC (ssRNA) [Ib_S3_P4E.1_K4.1_C4.1_H4.1_[T1A]_A4.1_F4.1_[T8C]_T4.1], more than 2300 nM. Still for that read-out and setting: the same measure for ACAAACGGUAUAUAAACAAAC (ssRNA) [Ib_S3_P4E.1_K4.1_C4.1_H4.1_[T1G]_A4.1_F4.1_[T8A]_T4.1]: 1980 nM; for ACAAACUGCAUAUUUACAAAC (ssRNA) [Ib_S3_P4E.1_K4.1_C4.1_H4.1_[T3C]_A4.1_F4.1_[A9T]_T4.1]: 839 nM; for ACAAACUAUAUUUAACAAAC (ssRNA) [Ib_S3_P3E.1_K3.1_C3.1_H3.1_[G2A]_A3.1_[A6T]_F3.1_T3.1]: more than 2300 nM. As to ACAAACGGUACAUAACAAAC (ssRNA) [Ib_S3_P3E.1_K3.1_C3.1_H3.1_[T1G]_A3.1_[T5C]_F3.1_T3.1], the Kd was more than 2300 nM. Regarding ACAAACUUUAUAUUCACAAAC (ssRNA) [Ib_S3_P4E.1_K4.1_C4.1_H4.1_[G2T]_A4.1_F4.1_[A9C]_T4.1], the Kd was more than 2300 nM.

The molecule ACAAACGGUAUAUGAACAAAC (ssRNA) [Ib_S3_P4E.1_K4.1_C4.1_H4.1_[T1G]_A4.1_F4.1_[T8G]_T4.1] returned a Kd of more than 2300 nM. On the same count and under the same terms, with ACAAACUGCAUAUUCACAAAC (ssRNA) [Ib_S3_P4E.1_K4.1_C4.1_H4.1_[T3C]_A4.1_F4.1_[A9C]_T4.1] the figure was more than 2300 nM; with ACAAACUGUCUUUAACAAAC (ssRNA) [Ib_S3_P3E.1_K3.1_C3.1_H3.1_[A4C]_A3.1_[A6T]_F3.1_T3.1], more than 2300 nM.

The molecule ACAAACUGCAGAUAACAAAC (ssRNA) [Ib_S3_P3E.1_K3.1_C3.1_H3.1_[T3C]_A3.1_[T5G]_F3.1_T3.1] returned a Kd of more than 2300 nM.

ACAAACGGUAUCUAACAAAC (ssRNA) [Ib_S3_P3E.1_K3.1_C3.1_H3.1_[T1G]_A3.1_[A6C]_F3.1_T3.1]: the Kd was more than 2300 nM. Still for that read-out and setting: with ACAAACUGGAGAUAACAAAC (ssRNA) [Ib_S3_P3E.1_K3.1_C3.1_H3.1_[T3G]_A3.1_[T5G]_F3.1_T3.1] the figure was more than 2300 nM; with ACAAACACUAUAUUAACAAAC (ssRNA) [Ib_S3_P4E.1_K4.1_C4.1_H4.1_[T1A]_[G2C]_A4.1_F4.1_T4.1], more than 2300 nM; with ACAAACUAUAUAUUCACAAAC (ssRNA) [Ib_S3_P4E.1_K4.1_C4.1_H4.1_[G2A]_A4.1_F4.1_[A9C]_T4.1], 1480 nM. Same read-out and setting: with ACAAACAGUAGAUAACAAAC (ssRNA) [Ib_S3_P3E.1_K3.1_C3.1_H3.1_[T1A]_A3.1_[T5G]_F3.1_T3.1] the figure was more than 2300 nM; with ACAAACAGUAUAUAAACAAAC (ssRNA) [Ib_S3_P4E.1_K4.1_C4.1_H4.1_[T1A]_A4.1_F4.1_[T8A]_T4.1], more than 2300 nM; with ACAAACUGGAUUUAACAAAC (ssRNA) [Ib_S3_P3E.1_K3.1_C3.1_H3.1_[T3G]_A3.1_[A6T]_F3.1_T3.1], more than 2300 nM. On the same count and under the same terms, the same measure for ACAAACUGAAUCUAACAAAC (ssRNA) [Ib_S3_P3E.1_K3.1_C3.1_H3.1_[T3A]_A3.1_[A6C]_F3.1_T3.1]: more than 2300 nM. With ACAAACCGUAUAUUCACAAAC (ssRNA) [Ib_S3_P4E.1_K4.1_C4.1_H4.1_[T1C]_A4.1_F4.1_[A9C]_T4.1], the Kd was more than 2300 nM. In turn, ACAAACUCUAUAUCAACAAAC (ssRNA) [Ib_S3_P4E.1_K4.1_C4.1_H4.1_[G2C]_A4.1_F4.1_[T8C]_T4.1] had a Kd of more than 2300 nM. On the same count and under the same terms, the same measure for ACAAACUGCUUAUAACAAAC (ssRNA) [Ib_S3_P3E.1_K3.1_C3.1_H3.1_[T3C]_[A4T]_A3.1_F3.1_T3.1]: more than 2300 nM.

As for ACAAACUUUAGAUAACAAAC (ssRNA) [Ib_S3_P3E.1_K3.1_C3.1_H3.1_[G2T]_A3.1_[T5G]_F3.1_T3.1], the Kd was more than 2300 nM. The same measure, in the same setting: the same measure for ACAAACUCUAUAUUCACAAAC (ssRNA) [Ib_S3_P4E.1_K4.1_C4.1_H4.1_[G2C]_A4.1_F4.1_[A9C]_T4.1]: more than 2300 nM. Still for that read-out and setting: the same measure for ACAAACUUUAUUUAACAAAC (ssRNA) [Ib_S3_P3E.1_K3.1_C3.1_H3.1_[G2T]_A3.1_[A6T]_F3.1_T3.1]: more than 2300 nM; for ACAAACAGUAUUUAACAAAC (ssRNA) [Ib_S3_P3E.1_K3.1_C3.1_H3.1_[T1A]_A3.1_[A6T]_F3.1_T3.1]: more than 2300 nM.

The target of the next series is T3, PUF4 RNA-binding domain (Pumilio homology domain) (Saccharomyces cerevisiae, UniProt P25339 537-888).
T3 sequence: T1 sequence
Description: RNA-MaP; ddG 3.166; RNA-MaP: 20 mM Na-HEPES pH 7.4, 0.1% Tween-20, 5% glycerol, 0.1 mg/mL BSA, 2 mM DTT, low salt 0.75 mM MgCl2 + 30 mM KOAc (model data; high salt 2 mM MgCl2 + 100 mM KOAc), 25 C. Particulars: protein: recombinant; tags: C-terminal SNAP tag, Cy3B-labeled; N-terminal His tag removed with TEV; label: array RNA; single-stranded.
In the case of UCUCUUUAUAUAUAUCUCUU (ssRNA) [S1a K3.1 G2A], the Kd is -8.45 ± 0.403 kcal/mol (dG=RTlnKd).

Another series addresses T3, PUF4 RNA-binding domain (Pumilio …). Description: RNA-MaP; ddG 3.526; RNA-MaP: 20 mM Na-HEPES pH 7.4, 0.1% Tween-20, 5% glycerol, 0.1 mg/mL BSA, 2 mM DTT, low salt 0.75 mM MgCl2 + 30 mM KOAc (model data; high salt 2 mM MgCl2 + 100 mM KOAc), 25 C. Particulars: protein: recombinant; tags: C-terminal SNAP tag, Cy3B-labeled; N-terminal His tag removed with TEV; label: array RNA; single-stranded.
On to UCUCUUUGUCUAUAUCUCUU (ssRNA) [S1a K3.1 A4C], for which the Kd was -8.09 ± 0.737 kcal/mol (dG=RTlnKd).

The next series shares this target. Briefly: RNA-MaP; ddG 2.995; RNA-MaP: 20 mM Na-HEPES pH 7.4, 0.1% Tween-20, 5% glycerol, 0.1 mg/mL BSA, 2 mM DTT, low salt 0.75 mM MgCl2 + 30 mM KOAc (model data; high salt 2 mM MgCl2 + 100 mM KOAc), 25 C. Particulars: protein: recombinant; tags: C-terminal SNAP tag, Cy3B-labeled; N-terminal His tag removed with TEV; label: array RNA; single-stranded.
Turning to UCUCUUUGUUUAUAUCUCUU (ssRNA) [S1a K3.1 A4T], the Kd is -8.62 ± 0.651 kcal/mol (dG=RTlnKd).

The target is the same in the next series. Description: RNA-MaP; ddG 0.390; RNA-MaP: 20 mM Na-HEPES pH 7.4, 0.1% Tween-20, 5% glycerol, 0.1 mg/mL BSA, 2 mM DTT, low salt 0.75 mM MgCl2 + 30 mM KOAc (model data; high salt 2 mM MgCl2 + 100 mM KOAc), 25 C. The note with it: protein: recombinant; tags: C-terminal SNAP tag, Cy3B-labeled; N-terminal His tag removed with TEV; label: array RNA; single-stranded.
With UCUCUUUGUACAUAUCUCUU (ssRNA) [S1a K3.1 T5C], the Kd was -11.2 ± 0.37 kcal/mol (dG=RTlnKd).

The target is the same in a further series. Description: RNA-MaP; ddG 1.315; RNA-MaP: 20 mM Na-HEPES pH 7.4, 0.1% Tween-20, 5% glycerol, 0.1 mg/mL BSA, 2 mM DTT, low salt 0.75 mM MgCl2 + 30 mM KOAc (model data; high salt 2 mM MgCl2 + 100 mM KOAc), 25 C. Particulars: protein: recombinant; tags: C-terminal SNAP tag, Cy3B-labeled; N-terminal His tag removed with TEV; label: array RNA; single-stranded.
On to UCUCUUUGUAAAUAUCUCUU (ssRNA) [S1a K3.1 T5A], for which the Kd is -10.3 ± 0.252 kcal/mol (dG=RTlnKd).

Another series shares this target. Briefly: RNA-MaP; ddG 1.827; RNA-MaP: 20 mM Na-HEPES pH 7.4, 0.1% Tween-20, 5% glycerol, 0.1 mg/mL BSA, 2 mM DTT, low salt 0.75 mM MgCl2 + 30 mM KOAc (model data; high salt 2 mM MgCl2 + 100 mM KOAc), 25 C. Particulars: protein: recombinant; tags: C-terminal SNAP tag, Cy3B-labeled; N-terminal His tag removed with TEV; label: array RNA; single-stranded.
As to UCUCUUUGUAUGUAUCUCUU (ssRNA) [S1a K3.1 A6G], the Kd is -9.79 ± 0.309 kcal/mol (dG=RTlnKd).

These data come from publication PMC9352680, “A comprehensive thermodynamic model for RNA binding by the Saccharomyces cerevisiae Pumilio protein PUF4”.
